Columns and labels:
[1] = biological target: zip from GCN4 (T25-zip and T18-zip, positive control of the BACTH kit); assay: two-hybrid
[2] = biological target: T1, N-terminally His-tagged PflB (E. coli, UniProt P09373 2-760); assay: cross-linking
T1 sequence: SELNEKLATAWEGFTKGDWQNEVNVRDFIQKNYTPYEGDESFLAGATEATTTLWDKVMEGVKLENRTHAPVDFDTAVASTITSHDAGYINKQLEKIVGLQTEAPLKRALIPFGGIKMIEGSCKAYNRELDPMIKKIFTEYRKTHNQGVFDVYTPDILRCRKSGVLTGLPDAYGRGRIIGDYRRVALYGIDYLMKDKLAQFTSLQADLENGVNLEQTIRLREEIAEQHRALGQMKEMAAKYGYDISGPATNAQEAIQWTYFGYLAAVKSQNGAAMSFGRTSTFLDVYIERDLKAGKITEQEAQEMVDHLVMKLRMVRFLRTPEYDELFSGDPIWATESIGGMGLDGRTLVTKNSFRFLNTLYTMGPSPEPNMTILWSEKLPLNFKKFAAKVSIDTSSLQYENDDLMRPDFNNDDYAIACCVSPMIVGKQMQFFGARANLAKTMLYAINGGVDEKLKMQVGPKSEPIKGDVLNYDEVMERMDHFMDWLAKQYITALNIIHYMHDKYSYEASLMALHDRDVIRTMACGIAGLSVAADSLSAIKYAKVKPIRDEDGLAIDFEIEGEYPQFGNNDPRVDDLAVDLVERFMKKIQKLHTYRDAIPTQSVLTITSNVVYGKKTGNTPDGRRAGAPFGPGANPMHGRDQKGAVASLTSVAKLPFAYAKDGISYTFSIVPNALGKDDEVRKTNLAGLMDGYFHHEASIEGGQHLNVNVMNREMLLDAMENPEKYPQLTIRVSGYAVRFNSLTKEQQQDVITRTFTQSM

[3] = biological target: T1, N-terminally His-tagged PflB; assay: pull-down

Which β-galactosidase activity [1] does the source give for “zip from GCN4 (T25-zip and T18-zip, positive control of the BACTH kit) (domain or fragment)” here?
The β-galactosidase activity was 715 units.

B1: FocA, purified preparation used for BS2G cross-linking (natural protein, E. coli)
chain: MKADNPFDLLLPAAMAKVAEEAGVYKATKHPLKTFYLAITAGVFISIAFVFYITATTGTGTMPFGMAKLVGGICFSLGLILCVVCGADLFTSTVLIVVAKASGRITWGQLAKNWLNVYFGNLVGALLFVLLMWLSGEYMTANGQWGLNVLQTADHKVHHTFIEAVCLGILANLMVCLAVWMSYSGRSLMDKAFIMVLPVAMFVASGFEHSIANMFMIPMGIVIRDFASPEFWTAVGSAPENFSHLTVMNFITDNLIPVTIGNIIGGGLLVGLTYWVIYLRENDHH
Does B1 bind [2]?
Result: binds

B2: N-terminally Strep-tagged FocA (formate channel A) (natural protein, E. coli, UniProt P0AC23 1-285, looked up)
chain: B1 chain
Does B2 bind [3]?
Result: binds

Reference: paper PMC5560055 (Journal of molecular biology, 2014)
